Results taken from US9492508B2, “Parathyroid hormone analogs and uses thereof” (The General Hospital Corporation, priority 2010, dated 2016).
Square brackets hold non-standard residues; d marks the D form. Ends that are not written are not given here. Peptide text beside a SMILES is read from it. hArg = N=C(N)NCCCC[C@H](N)C(=O)O; Aib = CC(C)(N)C(=O)O

Columns and labels:
[1] = molecular target: T1, rat PTHR1 (RG) (Rattus norvegicus, UniProt P25961); assay: Competition binding, RG conformation of rat PTHR1; conditions: RG conformation; mean of 4 experiments; read-out: Binding rat PTHR1 IC50 (Log M) RG (converted)
T1 construct: expressed in transfected cells
T1 sequence (P25961 27-591): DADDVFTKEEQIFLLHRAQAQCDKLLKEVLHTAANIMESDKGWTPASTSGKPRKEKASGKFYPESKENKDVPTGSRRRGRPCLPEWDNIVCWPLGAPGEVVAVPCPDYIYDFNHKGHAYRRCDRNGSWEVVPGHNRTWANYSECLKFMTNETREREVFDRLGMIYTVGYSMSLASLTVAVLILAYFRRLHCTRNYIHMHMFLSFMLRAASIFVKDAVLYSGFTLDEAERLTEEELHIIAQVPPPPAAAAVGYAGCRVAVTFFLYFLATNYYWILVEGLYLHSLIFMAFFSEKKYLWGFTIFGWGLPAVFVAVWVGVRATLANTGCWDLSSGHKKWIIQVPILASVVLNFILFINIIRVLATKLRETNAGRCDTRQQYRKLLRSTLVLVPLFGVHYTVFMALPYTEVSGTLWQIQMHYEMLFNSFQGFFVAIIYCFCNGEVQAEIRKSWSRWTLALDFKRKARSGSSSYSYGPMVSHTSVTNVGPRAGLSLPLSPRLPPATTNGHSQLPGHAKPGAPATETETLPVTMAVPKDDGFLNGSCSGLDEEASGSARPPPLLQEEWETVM
Text: (§1) Briefly, the R^0 form of the receptor can be favored by addition of the non-hydrolyzable nucleotide analog GTPγS. The RG form can be favored, for example, by co-transfection of cells with a negative dominant Gαs subunit. […] Data are means of four experiments, each performed in duplicate. Curves were fit to the data using Graph-Pad Prism 4.0.

[2] = molecular target: T2, human PTHR1 (R0) (Homo sapiens, UniProt Q03431); assay: Competition binding, R0 conformation of human PTHR1 (COS-7 membranes, 125I-PTH(1-34) tracer, GTPγS)
T2 construct: expressed in transfected cells; host or cells: COS-7 cells (membranes)
T2 sequence (Q03431 27-593): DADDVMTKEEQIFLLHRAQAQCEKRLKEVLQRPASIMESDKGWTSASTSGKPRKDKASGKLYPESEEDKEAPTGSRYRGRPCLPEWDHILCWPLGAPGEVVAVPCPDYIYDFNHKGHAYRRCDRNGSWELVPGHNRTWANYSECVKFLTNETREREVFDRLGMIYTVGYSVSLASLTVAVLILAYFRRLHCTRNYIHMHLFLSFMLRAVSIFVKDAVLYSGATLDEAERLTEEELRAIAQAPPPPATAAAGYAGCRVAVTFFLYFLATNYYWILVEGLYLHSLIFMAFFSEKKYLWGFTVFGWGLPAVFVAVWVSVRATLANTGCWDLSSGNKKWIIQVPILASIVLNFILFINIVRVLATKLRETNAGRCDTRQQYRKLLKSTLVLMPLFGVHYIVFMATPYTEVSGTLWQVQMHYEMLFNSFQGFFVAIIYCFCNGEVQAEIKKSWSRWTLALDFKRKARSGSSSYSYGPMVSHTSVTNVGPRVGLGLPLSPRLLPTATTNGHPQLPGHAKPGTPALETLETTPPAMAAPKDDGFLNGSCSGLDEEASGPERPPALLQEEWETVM
Experimental: as §1
(§2) Here, competition binding assays for the R^0 and RG PTHR1 conformation were performed in membranes prepared from transfected COS-7 cells, as described by Dean et al., Mol Endocrinol 22:156-66, 2008. Data are means of three experiments, each performed in duplicate. Curves were fit to the data using Graph-Pad Prism 4.0.

[3] = test system: MC3T3-E1 cells; assay: cAMP RIA in intact MC3T3-E1 cells; assay type: cell-based, mouse; conditions: 30 min, room temperature, IBMX
Experimental: cAMP stimulating activity of these polypeptides was also assessed, using two different methods: a radioimmunoassay (RIA; FIG. 2) and a cAMP responsive element fused to a luciferase gene (FIG. 3). Briefly, the RIA cAMP assays were performed in intact MC3T3-E1 cells, a mouse pre-osteoblastic cell line, in 96-well plates, as described by Okazaki et al. (Proc Natl Acad Sci USA 105:16525-30, 2008). […] The cAMP contents of the HCl lysates were then determined by RIA. Data are means of six experiments, each performed in duplicate. Curves were fit to the data using Graph-Pad Prism 4.0.

[4] = Blood Ca++ responses in mice; assay type: in vivo, mice (C57 BL/6); conditions: 5 nmol/kg s.c., 4, 6, 8 and 24 hours
Experimental: Blood Ca^++ responses in mice were also assayed. Mice (C57 BL/6) were injected subcutaneously with either vehicle or the indicated ligand to give a final dose of 5 nmol/kg body weight, and blood was withdrawn via the tail at times after injection and assessed for Ca^++ concentration using a Bayer Rapid Lab model 348 blood analyzer. […] A similar experiment using 10 nmol/kg by intravenous injection was also conducted with similar results (FIGS. 8C and 8D).

[5] = test system: MC3T3-E1 cells; assay: cAMP response following ligand wash-out in MC3T3-E1 cells; assay type: cell-based, mouse; conditions: 100 nM ligand 5 min, then wash-out; FIGS. 7A, 7B
Experimental: Cells were treated at room temperature with vehicle or the indicated ligand (100 nM) for five minutes; for each ligand duplicate wells were used to obtain the initial (maximum cAMP values); in these wells, cells were co-incubated with ligand and IBMX. After five minutes of initial treatment, the buffer was removed, and, for the initial wells, the reactions were terminated by addition of 50 mM HCl. In the other wells, the cells were rinsed three times with buffer, and incubated in buffer for varying times, as indicated on the abscissa; after which the buffer was replaced by a buffer containing IBMX, and the cells were incubated for another five minutes. After that, the buffer was removed and the reactions were terminated by addition of 50 mM HCl. The cAMP contents of the HCl lysates were then determined by RIA.

[6] = molecular target: T3, rat PTH receptor (rat, UniProt P25961 27-591, limits assumed); assay: radioligand displacement, rat PTHR1, RG conformation
T3 construct: R0 and RG conformations assayed separately by the method of WO 2009/017809 or a similar one; also called rat PTHR1
T3 sequence (looked up): T1 sequence (P25961 27-591)

[7] = molecular target: T3, rat PTH receptor; assay: radioligand displacement, rat PTHR1, R0 conformation
[8] = molecular target: T4, human PTH-1 receptor (human, UniProt Q03431 27-593); assay: radioligand competition, human PTHR1 in COS-7 membranes, RG conformation
T4 construct: whole, on cells; also called human PTHR1; human PTH receptor
T4 sequence (looked up): T2 sequence (Q03431 27-593)
Experimental: as §2, with “R⁰” for “R^0”

[9] = molecular target: T4, human PTH-1 receptor; assay: radioligand competition, human PTHR1 in COS-7 membranes, R0 conformation
Experimental: as §2, with “R⁰” for “R^0”

Molecule: CC[C@H](C)[C@H](NC(=O)[C@H](CCC(=O)O)NC(=O)[C@H](C)NC(=O)[C@@H](NC(=O)[C@H](Cc1c[nH]cn1)NC(=O)[C@@H](NC(=O)[C@H](CCC(=O)O)NC(=O)[C@H](C)NC(=O)[C@@H](NC(=O)[C@H](CC(C)C)NC(=O)[C@H](Cc1c[nH]cn1)NC(=O)[C@H](Cc1c[nH]cn1)NC(=O)[C@H](CC(C)C)NC(=O)[C@H](Cc1ccccc1)NC(=O)[C@H](Cc1ccccc1)NC(=O)[C@H](CCCNC(=N)N)NC(=O)[C@H](CCCNC(=N)N)NC(=O)[C@H](CCCNC(=N)N)NC(=O)[C@H](CC(C)C)NC(=O)[C@H](CC(=O)O)NC(=O)[C@H](CCC(N)=O)NC(=O)[C@@H](NC(=O)[C@H](Cc1c[nH]c2ccccc12)NC(=O)[C@H](CCCCN)NC(=O)[C@H](C)NC(=O)[C@H](CCCCNC(=N)N)NC(=O)[C@H](CCC(N)=O)NC(=O)[C@H](Cc1c[nH]cn1)NC(=O)[C@H](CCSC)NC(=O)[C@H](CC(C)C)NC(=O)[C@H](CCC(N)=O)NC(=O)[C@@H](NC(=O)[C@H](CCC(=O)O)NC(=O)C(C)(C)NC(=O)[C@@H](NC(=O)[C@H](C)N)C(C)C)[C@@H](C)CC)[C@@H](C)CC)[C@@H](C)CC)[C@@H](C)CC)[C@@H](C)O)C(N)=O [AIB-SP-PTH, [Ala^1,12,Aib^3,Gln^10,Har^11,Trp^14]PTH(1-14)/PTHrP(15-36)] (H-AV[Aib]EIQLMHQ[hArg]AKWIQDLRRRFFLHHLIAEIHTAEI-NH2; N-terminus assumed)
- IC50 [1]: 0.38 nM
- R0 binding at human PTH receptor as compared to PTH(1-34) ([2]; FIG. 5A): enhanced R^0 binding
- IC50 ([2]; R0 conformation, mean of 3 experiments, read-out: Binding human PTHR1 IC50 (Log M) R0 (converted)): 1.82 nM
- EC50 [3]: 0.044 nM
- cAMP MC3T3-E1 cells Emax (pmole/well) [3]: 62.1 ± 13.3 pmole/well
- cAMP MC3T3-E1 cells EC50 (Log M) ([3]; 6 experiments): −10.4 ± 0.1 Log M
- blood calcium levels at later time points vs PTH(1-34) or vehicle [4]: increased
- cAMP-stimulating activity after ligand wash-out [5]: maintained cAMP-stimulating activity for longer periods of time than PTH(1-34)

B1: SP-PTH ([Ala1,3,12,Gln10,Arg11,Trp14]PTH(1-14)/PTHrP(15-36)) (peptide)
peptide: AVAEIQLMHQRAKWIQDLRRRFFLHHLIAEIHTAEI-OH
notes: Synthetic hybrid analog of human PTH(1-14) and human PTHrP(15-36); also called Super-potent PTH; Mc-PTH(1-14)/rP(15-36)OH
- IC50 [6]: 0.61 nM
- IC50 [7]: 1.4 nM
- IC50 [8]: 0.48 nM
- IC50 [9]: 1.4 nM

B2: SP-PTH-AAK ([Ala1,3,12,18,22,Gln10,Arg11,Trp14,Lys26]PTH(1-14)/PTHrP(15-36)) (peptide)
peptide: AVAEIQLMHQRAKWIQDARRRAFLHKLIAEIHTAEI-OH
notes: Synthetic hybrid analog of human PTH(1-14) and human PTHrP(15-36); also called Mc-PTH(1-14)/AAK-rP(15-36)OH; SP-AAK
- IC50 [6]: 0.7 nM
- IC50 [7]: 0.21 nM
- IC50 [8]: 0.22 nM
- IC50 [9]: 0.68 nM

B3: Aib-SP-PTH-AAK ([Ala1,12,18,22,Aib3,Gln10,Har11,Trp14,Lys26]PTH(1-14)/PTHrP(15-36)) (peptide)
peptide: AV[Aib]EIQLMHQ[hArg]AKWIQDARRRAFLHKLIAEIHTAEI-NH2
modifications: N-terminus assumed
SMILES: CC[C@H](C)[C@H](NC(=O)[C@H](CCC(=O)O)NC(=O)[C@H](C)NC(=O)[C@@H](NC(=O)[C@H](Cc1c[nH]cn1)NC(=O)[C@@H](NC(=O)[C@H](CCC(=O)O)NC(=O)[C@H](C)NC(=O)[C@@H](NC(=O)[C@H](CC(C)C)NC(=O)[C@H](CCCCN)NC(=O)[C@H](Cc1c[nH]cn1)NC(=O)[C@H](CC(C)C)NC(=O)[C@H](Cc1ccccc1)NC(=O)[C@H](C)NC(=O)[C@H](CCCNC(=N)N)NC(=O)[C@H](CCCNC(=N)N)NC(=O)[C@H](CCCNC(=N)N)NC(=O)[C@H](C)NC(=O)[C@H](CC(=O)O)NC(=O)[C@H](CCC(N)=O)NC(=O)[C@@H](NC(=O)[C@H](Cc1c[nH]c2ccccc12)NC(=O)[C@H](CCCCN)NC(=O)[C@H](C)NC(=O)[C@H](CCCCNC(=N)N)NC(=O)[C@H](CCC(N)=O)NC(=O)[C@H](Cc1c[nH]cn1)NC(=O)[C@H](CCSC)NC(=O)[C@H](CC(C)C)NC(=O)[C@H](CCC(N)=O)NC(=O)[C@@H](NC(=O)[C@H](CCC(=O)O)NC(=O)C(C)(C)NC(=O)[C@@H](NC(=O)[C@H](C)N)C(C)C)[C@@H](C)CC)[C@@H](C)CC)[C@@H](C)CC)[C@@H](C)CC)[C@@H](C)O)C(N)=O
notes: Synthetic hybrid analog of human PTH(1-14) and human PTHrP(15-36); also called Super-potent Aib-AAK PTH; M-PTH(1-14)AAK-/rP(15-36)NH2
- IC50 [6]: 0.45 nM
- IC50 [8]: 0.37 nM
- IC50 [9]: 0.94 nM

B4: M-PTH(1-34) (peptide)
peptide: AV[Aib]EIQLMHQ[hArg]AKWLNSMRRVEWLRKKLQDVHNF-NH2
modifications: N-terminus assumed
SMILES: CC[C@H](C)[C@H](NC(=O)[C@H](CCC(=O)O)NC(=O)C(C)(C)NC(=O)[C@@H](NC(=O)[C@H](C)N)C(C)C)C(=O)N[C@@H](CCC(N)=O)C(=O)N[C@@H](CC(C)C)C(=O)N[C@@H](CCSC)C(=O)N[C@@H](Cc1c[nH]cn1)C(=O)N[C@@H](CCC(N)=O)C(=O)N[C@@H](CCCCNC(=N)N)C(=O)N[C@@H](C)C(=O)N[C@@H](CCCCN)C(=O)N[C@@H](Cc1c[nH]c2ccccc12)C(=O)N[C@@H](CC(C)C)C(=O)N[C@@H](CC(N)=O)C(=O)N[C@@H](CO)C(=O)N[C@@H](CCSC)C(=O)N[C@@H](CCCNC(=N)N)C(=O)N[C@@H](CCCNC(=N)N)C(=O)N[C@H](C(=O)N[C@@H](CCC(=O)O)C(=O)N[C@@H](Cc1c[nH]c2ccccc12)C(=O)N[C@@H](CC(C)C)C(=O)N[C@@H](CCCNC(=N)N)C(=O)N[C@@H](CCCCN)C(=O)N[C@@H](CCCCN)C(=O)N[C@@H](CC(C)C)C(=O)N[C@@H](CCC(N)=O)C(=O)N[C@@H](CC(=O)O)C(=O)N[C@H](C(=O)N[C@@H](Cc1c[nH]cn1)C(=O)N[C@@H](CC(N)=O)C(=O)N[C@@H](Cc1ccccc1)C(N)=O)C(C)C)C(C)C
notes: M residues: Ala1,12, Aib3, Gln10, homoArg11, Trp14, Arg19; also called M-PTH(1-34).NH2; MGH# 1577
- IC50 [6]: 0.9 nM
- IC50 [7]: 1.5 nM
- IC50 [8]: 0.45 nM
- IC50 [9]: 0.95 nM
